Data published in patent US20090291088A1, “THERAPEUTIC COMBINATIONS OF ANTI-IGF-1R ANTIBODIES AND OTHER COMPOUNDS” (Biogen Idec MA Inc., priority 2008, published 2009).
Where a chain is given by its changes, count along the chain named.

B1: P1E2.3B12: murine anti-human IGF-1R monoclonal antibody from hybridoma; VH SEQ ID NO:63, VL SEQ ID NO:118 (antibody, V domains shown)
VH: QVQLQQPGAELVKPGASVKLSCKASGYTFTSYWMHWVKQRPGQGLEWIGEINPTYGRSNYNEKFKSKATLTVDKSSSTAYMQLSSLTSEDSAVYYCARLVRLRYFDVWGAGTTVTVSS
VL: DIVMTQAAFSNPVTLGTSASISCRSSKSLLHSNGITYLYWYLQKPGQSPQLLIYQMSNLASGVPDRFSSSGSGTDFTLRISRVEAEDVGVYYCAQNLELPYTFGGGTKLEIK
modifications: Antibody variable heavy chain sequence; Antibody variable light chain sequence
B2: P1A2.2B11: murine anti-human IGF-1R monoclonal antibody from hybridoma; VH SEQ ID NO:48, VL SEQ ID NO:108 (antibody, V domains shown)
VH: QIQLVQSGPELKKPGETVKISCKASGYTFTNHGMNWVKQAPGKGLKWMGWNTSTGEPTYADDFKGRFAFSLETSASTAFLQINNLKNEDTASYFCASPLYYMYGRYIDVWGAGTAVTVSS
VL: DIQMTQTTSSLSASLGDRVTISCRASQDISNYLNWYQQKPDGTIKLLIYYTSRLHSGVPSRFSGSGSGTDYSLTISNLEQEDFATYFCQQGKTLPWTFGGGTKLEIK
modifications: Antibody variable heavy chain sequence; Antibody variable light chain sequence
B3: P1G10.2B8: murine anti-human IGF-1R monoclonal antibody from hybridoma; VH SEQ ID NO:58, VL SEQ ID NO:113 (antibody, V domains shown)
VH: QIQLVQSGPDLKKPGETVKISCKASGYTFTNHGMNWVKQAPGKDLKWMGWINTNTGEPTYADDFKGRFAFSLETSASTAYLQINNLKNEDTATYFCASPLYYRNGRYFDVWGAGTTVTVSS
VL: B2 VL with T43S, I44V, F83I
modifications: Antibody variable heavy chain sequence; Antibody variable light chain sequence
B4: P2A7.3E11: murine anti-human IGF-1R monoclonal antibody from hybridoma; VH SEQ ID NO:38, VL SEQ ID NO:98 (antibody, V domains shown)
VH: QVQLQQSGPELVKPGASVKMSCKASGNTFTDYVINWVKQRTGQGLEWIGEIYPGNENTYYNEKFKGKATLTADKSSNTAYMQLSSLTSEDSAVYFCARGIYYYGSRTRTMDYWGQGTSVTVSS
VL: EVVLTQSPTAMAASPGEKITITCSASSTLSSNYLHWYQQKPGFSPKLLIYRTSNLASGVPGRFSGSGSGTSYSLTIGTMEAEDVATYYCQQGSSIPLTFGAGTKLELK
modifications: Antibody variable heavy chain sequence; Antibody variable light chain sequence

How the values were obtained:
Colo-205 = assay: IGF driven tumor cell growth, CELL TITER-GLO, Colo-205; type: cell-based, human; conditions: colon cancer cell
Experimental: (§1) NCI-H23, Calu-6, Colo-205, Panc-1, BxPC-3 (ATCC) tumor lines were purchased from ATCC. Cell lines were grown in complete growth medium containing RPMI-1640 (ATCC), 10% fetal bovine serum (Irvine Scientific Inc.) and 50 μg/ml of Gentamycin (Gibco, Invitrogen). Trypsin-EDTA solution (Sigma) was used for removal of adherent cells from culture vessels. Phosphate buffered saline, pH 7.2, was from MediaTech Inc The 96-well clear bottom plates for luminescent assay was purchased from Wallac Inc.
(§2) Cells grown to 80% monolayers were, trypsinized, washed, resuspended and plated into 96-well plates in 200 μl of 2% growth medium at 8×10^3 cells/well for NCI-H23 and Colo-205 cells; and 5×10^3 cells/well for Calu-6, Panc-1 and BxPC-3 cells. After 24 hours, the culture medium was replaced with 100 μl of serum free medium (SFM), and 50 μl of serially diluted antibodies at 4× concentration was added. […] All treatments were done in triplicates. Cell growth was measured using the CELL TITER-GLO™ Luminescent Cell Viability Assay (Promega, Madison, Wis.). The 1:1 mixture of reagent and SFM was added at 200 μl/well. Luminescence was detected on Wallac (Boston, Mass.) plate reader.
(§3) The ability of the selected murine antibodies to inhibit IGF/IGF-1R dependent in vitro growth of several human tumor lines (Lung, H-23, Calu-6; Pancreas, BxPc-3, Panc-1, MiaPaCa and Colon Colo205) was measured by a proliferation assay described in Example 13.

IGF-1R = target: T1, IGF-1R (Homo sapiens, UniProt P08069); assay: Ligand blocking assay (RIA): 125I-IGF-1 / 125I-IGF-2 binding to immobilized IGF-1R; conditions: murine monoclonal antibodies
T1 construct: human IGF-1R(1-903)-Fc (denoted hIGF-1R-Fc, generated by Biogen Idec)
Source text: Ligand blocking assay (RIA). […] Insulin (Arg-Insulin, Cat #01-207) was purchased from Upstate Cell Signaling Solutions (Lake Placid, N.Y. (now part of Millipore, Concord, Mass. (USA)). ^125I-rhIGF-1 (Cat # IM172), ^125I-rhIGF-2 (Cat# IM238) and ^125I-rhInsulin (Cat# IM166) were purchased from Amersham Biosciences (Piscataway, N.J.). AffiPure goat anti-human IgG, Fcγ fragment specific antibodies (Cat #109-005-098, Jackson ImmunoResearch, West Grove, Pa.) was used for IGF-1R-Fc capture. As detection antibody, goat anti-mouse IgG HRP (Cat #1030-05, Southern Biotech Birmingham, Ala.) was used.
Human insulin receptor α-subunit specific antibodies, Clone 83-14, (Cat #AHR0221, Biosource International, Inc., Camarillo, Calif.) and the 47-9 (Cat #E55502M, Biodesign International, Saco, M E) were used as positive controls blocking of insulin-insulin receptor binding experiments. Recombinant IGF-1R-Fc fusion protein was produced at Biogen Idec (Cambridge, Mass.).
As isotype matched mouse negative control antibodies, 2B8 (murine α-CD20.1gG,) and 2B8 mkm.G2a (murine α-CD20 MAb, IgG2a, Biogen Idec, Lot #NB3304-87, San Diego, Calif.) were used. The negative control for Fabs was R001-1B provided by Christilyn Graff (Biogen Idec, Cambridge, Mass.). PBS used in buffers was from BioWhittaker (Cat. # 17-513F, Walkersville, Md.).
Recombinant human IGF-1R (Histidine tagged version) or IGF-1R-Fc was coated onto IMMULON2 HB (high binding) Removawell strips (Dynex Technologies, Inc., cat. #6302) diluted with carbonate coating buffer pH 9.5 to a concentration of 250 ng/well. After overnight incubation at 4° C., the wells were washed three times with washing buffer (0.05% Tween 20/PBS) then blocked with blocking buffer (3% BSA/PBS) for one hour at room temperature. The blocking buffer was removed and the wells washed three more times. Antibody, Fab, or ligand preparations were diluted to desired concentration with dilution buffer (1% BSA/0.05% Tween 20/PBS) and plated at 50 μl per well in duplicate. After 45 minutes at room temperature, 100,000 cpm of either [125I] rhIGF-1 or [125I] rhIGF-2 in 50 μl dilution buffer was added per well. This was incubated at room temperature for one more hour. The wells were washed again three more times and left liquid free after the last wash. The air-dried wells were counted with the Isodata Gamma Counter.
Alternatively, Fabs were evaluated by a modified capture assay, where the IGF-1R-Fc was captured using anti-human IgG immobilized to a plate. Immobilization was carried out by overnight incubation of goat anti-human IgG, Fcγ fragment specific antibody (200 ng/well) in carbonate coating buffer. The wells were washed, blocked and 250 ng of IGF-1R-Fc was added per well.
The ligand blocking ability of the anti-IGF-1R antibody was determined by a solid phase RIA capture method as described in Example 3. […] After 1 hour of incubation at room temperature, the wells were washed and counted for bound radioactivity by a Gamma Counter. An isotype matched negative antibody control, IDEC-151 (human G4), was used. Percent (%) inhibition was calculated as =[1−(Ave.CPM with Ab)/(Ave.CPM with buffer)]×100%.

Calu-6 = assay: IGF driven tumor cell growth, CELL TITER-GLO, Calu-6; type: cell-based, human; conditions: lung cancer cells
Experimental: as §1, §2, §3

Panc-1 = assay: IGF driven tumor cell growth, CELL TITER-GLO, Panc-1; type: cell-based, human; conditions: pancreatic cancer cell
Experimental: as §1, §2, §3

IGF-1R phosphorylation = target: T2, IGF-1R phosphorylation (Homo sapiens, UniProt P08069); assay: Inhibition of IGF-1 and IGF-2 mediated IGF-1R phosphorylation in MCF-7 cells (ELISA); type: cell-based; conditions: murine monoclonal antibodies
T2 construct: wild type IGF-1R expressed on MCF-7 tumor cells; endogenous in cells; host or cells: MCF-7
Experimental: Cell lines: IGF1R expressing human breast carcinoma cell line MCF-7 (NCI) were maintained at 37° C. and 5% CO2 in MEM eagle (ATCC) containing 10% FBS, 1× non-essential amino acids, 2 mM L-glutamine, 1 mM sodium pyruvate and 1000 U/ml penicillin and streptomycin. Cells were sub-cultured twice weekly for maintenance and assay, and used with a maximum of 12 passages.
MCF-7 cells were plated in 2 ml growth media at 2×10^5 to 4.0×10^5 cells/well in Ploy-D-Lysine coated 12 well plates (BD Biosciences, #35-6470) and cultured at 37° C., 5% CO2. At 48 hours, media removed and cells serum starved overnight at 37° C., 5% CO2 Serum free media was removed and control or test antibodies at indicated concentration were added in 350 ul of fresh serum free media and incubated for 1 hour at room temperature, or alternately at 37° C. Fabs were tested at 200 nM, 20 nM and 2 nM concentration and the mAbs were tested at 67, 6.7 and 0.67 nM. The commercial anti-IGF-1R control antibody used was αIR3 (EMD biosciences, Oncogene Research products, #D27249). […] Ligand was incubated at […] for 37° C. antibody experiments. Cells were lysed in 1× cell lysis buffer (Cell Signal Technologies, #9803) with 1 mM PMSF for 1 hour at room temperature.
Cell lysates were added to ELISA plates pre-coated with IGF-1Rp antibody (Clone 1-2, Biosource International, #AHR0361) and incubated for 2 hours. Following which plates were washed and the plate bound phosphorylated receptor was detected with the biotin labeled anti-phosphotyrosine antibody 4G10 (Catalog #16-103, Upstate Cell Signaling Solutions (Lake Placid, N.Y. (now part of Millipore, Concord, Mass. (USA)) and streptavidin-HRP (BD Pharmingen, #554066). Assay is developed by addition of TMB substrate (Kierkegaard & Perry, #50-76-00) and color stopped by addition of […] (LabChem, Cat#LC25830-1). Optical density is measured at 450 nm using a Molecular Devices plate reader and percent inhibition over the ligand control is calculated for each antibody-ligand sample.
The effect of human anti-IGF-1R antibodies on IGF-1R signaling was evaluated using MCF-7 cells (human breast adenocarcinoma cells).

NCI-H23 = assay: IGF driven tumor cell growth, CELL TITER-GLO, H-23; type: cell-based, human; conditions: for Proliferation of Tumor Cells H-23: lung cancer cells; for inhibition of IGF-1 and IGF-2 driven cell proliferation in H-23: NCI-H23 lung tumor cell line
Experimental: as §1, §2, §3
A commercially available anti-IGF-1R antibody (IR3) was used as a positive control. The mouse IgG (anti-IDectin, IgG1) and human gamma 4 version of IDEC-152 antibody of irrelevant specificity were used as isotype matched controls for the experiments. […]

MCF-7 = assay: Ki67 inhibition in MCF-7 cells; type: cell-based, human; conditions: breast cancer cell

| Molecule | Proliferation of Tumor Cells Colo-205 (Colo-205) | IGF Blocking IGF-1 (IGF-1R) | Proliferation of Tumor Cells Calu-6 (Calu-6) | Proliferation of Tumor Cells Panc-1 (Panc-1) | Inhibition of IGF-1R.pTyr IGF-1 (IGF-1R phosphorylation) | Inhibition of IGF-1R.pTyr IGF-2 (IGF-1R phosphorylation) | Proliferation of Tumor Cells H-23 (NCI-H23) | Proliferation of Tumor Cells MCF-7* (Ki67 Inhibit.) (MCF-7) | inhibition of IGF-1 and IGF-2 driven cell proliferation in H-23 (NCI-H23) |
| --- | --- | --- | --- | --- | --- | --- | --- | --- | --- |
| B1 | ++ (>30%@1 μg/ml) | +++ (>40%@0.1 μg/ml) | ++ (>30%@1 μg/ml) | ++ (>30%@1 μg/ml) | +++ (>30%@0.1 μg/ml) | +++ (>30%@0.1 μg/ml) | ++++ (>30%@0.01 μg/ml) | ++ (>50%@1 μg/ml) |  |
| B2 | +++ (>30%@0.1 μg/ml) | +++ (>40%@0.1 μg/ml) | ++ (>30%@1 μg/ml) | +++ (>30%@0.1 μg/ml) | +++ (>30%@0.1 μg/ml) | +++ (>30%@0.1 μg/ml) | +++ (>30%@0.1 μg/ml) | ++ (>50%@1 μg/ml) | showed inhibition |
| B3 | ++ (>30%@1 μg/ml) | +++ (>40%@0.1 μg/ml) | ++ (>30%@1 μg/ml) | + (>30%@10 μg/ml) | +++ (>30%@0.1 μg/ml) | +++ (>30%@0.1 μg/ml) | +++ (>30%@0.1 μg/ml) | +++ (>50%@0.1 μg/ml) |  |
| B4 | +++ (>30%@0.1 μg/ml) | +++ (>40%@0.1 μg/ml) | +++ (>30%@0.1 μg/ml) | ++++ (>30%@0.01 μg/ml) | +++ (>30%@0.1 μg/ml) | ++ (>30%@1 μg/ml) | ++++ (>30%@0.01 μg/ml) | ++ (>50%@1 μg/ml) | showed inhibition |
